Measurements from IntAct's records for PubMed 22453338.

B1: Cyclin-D1-binding protein 1 (Homo sapiens), O95273 (parent)
chain: MASATAPAAAVPTLASPLEQLRHLAEELRLLLPRVRVGEAQETTEEFNREMFWRRLNEAAVTVSREATTLTIVFSQLPLPSPQETQKFCEQVHAAIKAFIAVYYLLPKDQGITLRKLVRGATLDIVDGMAQLMEVLSVTPTQSPENNDLISYNSVWVACQQMPQIPRDNKAAALLMLTKNVDFVKDAHEEMEQAVEECDPYSGLLNDTEENNSDNHNHEDDVLGFPSNQDLYWSEDDQELIIPCLALVRASKACLKKIRMLVAENGKKDQVAQLDDIVDISDEISPSVDDLALSIYPPMCHLTVRINSAKLVSVLKKALEITKASHVTPQPEDSWIPLLINAIDHCMNRIKELTQSELEL
B2: Cyclin-D1-binding protein 1 (Homo sapiens), O95273 (parent)
chain: B1 chain
partner: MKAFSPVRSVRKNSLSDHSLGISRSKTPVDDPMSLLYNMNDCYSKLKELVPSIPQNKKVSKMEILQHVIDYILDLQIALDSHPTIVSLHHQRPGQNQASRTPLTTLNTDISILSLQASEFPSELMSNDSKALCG

Variants of: B1
Details: with ndf1_mouse Neurod1, Q60867
ndf1_mouse Neurod1, Q60867, sequence (Q60867 whole entry): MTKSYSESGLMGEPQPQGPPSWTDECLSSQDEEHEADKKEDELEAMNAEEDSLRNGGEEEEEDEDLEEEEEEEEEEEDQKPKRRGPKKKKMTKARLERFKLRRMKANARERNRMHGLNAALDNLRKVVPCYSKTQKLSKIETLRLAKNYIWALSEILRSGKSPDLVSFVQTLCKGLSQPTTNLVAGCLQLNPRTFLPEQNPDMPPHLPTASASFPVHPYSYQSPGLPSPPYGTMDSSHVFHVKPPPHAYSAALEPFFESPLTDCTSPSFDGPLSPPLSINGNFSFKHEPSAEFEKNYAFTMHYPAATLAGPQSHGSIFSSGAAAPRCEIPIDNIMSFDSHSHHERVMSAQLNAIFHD

effect of a mutation on the interaction | Variant
increasing interaction | N169E

Variants of: B1
Details: with ndf1_mouse Neurod1, Q60867
Remark: another data set of the same source

effect of a mutation on the interaction | Variant
increasing interaction | V278R

Variants of: B1
Details: with ndf1_mouse Neurod1, Q60867
Remark: another data set of the same source

effect of a mutation on the interaction | Variant
increasing interaction | P166Y

Variants of: B1
Details: with ndf1_mouse Neurod1, Q60867
Remark: another data set of the same source

effect of a mutation on the interaction | Variant
increasing interaction | V271F

Variants of: B2
Details: with id2_human ID2, Q02363

effect of a mutation on the interaction | Variant
increasing interaction | N169E

Variants of: B2
Details: with id2_human ID2, Q02363
Remark: another data set of the same source

effect of a mutation on the interaction | Variant
increasing interaction | P166Y

Variants of: B2
Details: with id2_human ID2, Q02363
Remark: another data set of the same source

effect of a mutation on the interaction | Variant
increasing interaction | V278R

Variants of: B2
Details: with id2_human ID2, Q02363
Remark: another data set of the same source

effect of a mutation on the interaction | Variant
increasing interaction | V271F
